Target: ZFHD-FKBP fusion with 3 copies of the drug binding domain (3xFKBP)
Test: cell-based or functional assay

luciferase expression in mice (Xenogen imaging) after rapamycin 2 mg/kg IP, against pre-induction; Group 2, transcription factor unit under the CMV promoter: > 2 logs | luciferase expression in mice (Xenogen imaging) after rapamycin 2 mg/kg IP, against pre-induction; Group 4, transcription factor unit under the TBG promoter: > 100 fold
Substance: FRB-TA fusion (FRB fragment of FRAP/mTOR fused to a portion of human NF-KB p65 as transcription activator)

From patent US20120058102A1
